B1: 001-E06 (IgG1) (antibody, V domains shown)
VH: QVELLESGGGLVQPGGSLRLSCAASGFTFSSYWMSWVRQAPGKGLEWVSSVSDTGTDTHYADSVKGRFTISRDNSKNTLYLQMNSLRAEDTAVYYCAKTPLAYSSGWYYFDYWGQGTLVTVSS
VL: DIVLTQPPSASGTPGQRVTISCSGSSSNIGSNTVNWYQQLPGTAPKLLIYRNYQRPSGVPDRFSGSKSGTSASLAISGLRSEDEADYYCQSYDSSLSGSVFGGGTKLTVLG
B2: HE06.642 (antibody, V domains shown)
VH: EVQLVESGGGLVQPGGSLRLSCAVSGFTFSSYGMSWVRQAPGKGLEWVATVSSGGTYTYYPDSVKGRFTISRDNSKNTLYLQMNSLRAEDTAVYYCARHRGNYYATYYYAMDYWGQGTLVTVSS
VL: DIVLTQSPDSLAVSLGERATINCKASKSVSTSGYTYMHWYQQKPGQPPKLLIYLASNRESGVPDRFSGSGSGTDFTLTISPVQAEDVATYYCQHSGELPPSFGQGTKLEIKR
B3: XHA06.642 (antibody, V domains shown)
VH: EVQLVESGGDLVKPGGSLKLSCAVSGFTFSSYGMSWVRQTPDKRLEWVATVSSGGTYTYYPDSVKGRFTISRDNAKNTLYLQMSSLKSEDSAMYYCARHRGNYYATYYYAMDYWGQGTSVTVSS
VL: DIVLTQSPASLAVSLGQGATISCRASKSVSTSGYTYMHWYQQKPGQPPKLLIYLASNLESGVPARFSGSGSGTDFTLNIHPVEEEDAATYYCQHSGELPPSFGGGTKLEIKR

biological target: rat prolactin receptor on Nb2 rat lymphoma cells (rat) (UniProt P05710); test: FACS on rat lymphoma cell line Nb2, IgG1

Binder | EC50
B1 | 1.2 nM
B2 | 0.9 nM
B3 | 1.1 nM
